Data as given in patent US20140242068A1 (EMORY UNIVERSITY, published 2014).

T1: JAMA on CHO cells (CHO-JAMA transfectants) (UniProt Q9Y624 28-299, limits assumed)
T1 construct: whole, on cells; Construct not described
T1 sequence (looked up): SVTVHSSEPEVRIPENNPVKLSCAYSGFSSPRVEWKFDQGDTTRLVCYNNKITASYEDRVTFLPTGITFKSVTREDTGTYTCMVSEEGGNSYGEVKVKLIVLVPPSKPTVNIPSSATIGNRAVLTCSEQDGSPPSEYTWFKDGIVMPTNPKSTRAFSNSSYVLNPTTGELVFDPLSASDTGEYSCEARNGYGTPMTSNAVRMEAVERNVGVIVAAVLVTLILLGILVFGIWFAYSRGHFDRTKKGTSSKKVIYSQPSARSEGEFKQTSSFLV

T2: purified extracellular domain of CAR tagged with GST (CAR-GST) (UniProt P78310 20-237, limits assumed)
T2 construct: extracellular domain; also called soluble CAR; sCAR; not shown: GST tag
T2 sequence (looked up): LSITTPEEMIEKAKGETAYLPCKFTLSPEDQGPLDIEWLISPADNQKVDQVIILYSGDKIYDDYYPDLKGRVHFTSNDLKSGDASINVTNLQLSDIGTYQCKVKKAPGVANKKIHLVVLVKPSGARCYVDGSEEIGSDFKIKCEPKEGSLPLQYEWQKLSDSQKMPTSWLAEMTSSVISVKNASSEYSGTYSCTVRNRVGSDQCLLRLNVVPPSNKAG

T3: CLMP-Fc (UniProt Q9H6B4 19-235, limits assumed)
T3 construct: Construct not described; also called CAR-like membrane protein; not shown: Fc tag
T3 sequence (looked up): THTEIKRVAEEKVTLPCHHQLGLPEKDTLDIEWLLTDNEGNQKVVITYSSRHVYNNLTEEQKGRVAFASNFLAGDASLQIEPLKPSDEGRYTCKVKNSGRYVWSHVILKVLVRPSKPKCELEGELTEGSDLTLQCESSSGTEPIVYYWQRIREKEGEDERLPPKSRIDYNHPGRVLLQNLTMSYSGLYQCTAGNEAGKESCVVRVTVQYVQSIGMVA

T4: JAMC_Fc (UniProt Q9BX67 32-241, limits assumed)
T4 construct: Construct not described; not shown: Fc tag
T4 sequence (looked up): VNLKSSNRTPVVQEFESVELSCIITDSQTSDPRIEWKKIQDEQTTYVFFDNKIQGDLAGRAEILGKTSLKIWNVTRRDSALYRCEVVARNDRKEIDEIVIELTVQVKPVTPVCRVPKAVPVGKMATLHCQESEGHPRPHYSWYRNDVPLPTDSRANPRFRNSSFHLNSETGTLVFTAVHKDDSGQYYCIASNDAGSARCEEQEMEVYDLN

T5: JAMA-GST (UniProt Q9Y624 28-238, limits assumed)
T5 construct: Construct not described; not shown: GST tag
T5 sequence (looked up): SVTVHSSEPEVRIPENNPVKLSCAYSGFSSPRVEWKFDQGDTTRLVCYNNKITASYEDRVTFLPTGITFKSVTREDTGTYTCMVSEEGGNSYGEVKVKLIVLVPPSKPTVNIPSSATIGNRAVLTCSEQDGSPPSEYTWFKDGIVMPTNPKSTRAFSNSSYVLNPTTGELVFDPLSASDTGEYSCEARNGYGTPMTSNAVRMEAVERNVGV

T6: JAMA-Fc (UniProt Q9Y624 28-238, limits assumed)
T6 construct: the construct is not described; not shown: Fc tag
T6 sequence (looked up): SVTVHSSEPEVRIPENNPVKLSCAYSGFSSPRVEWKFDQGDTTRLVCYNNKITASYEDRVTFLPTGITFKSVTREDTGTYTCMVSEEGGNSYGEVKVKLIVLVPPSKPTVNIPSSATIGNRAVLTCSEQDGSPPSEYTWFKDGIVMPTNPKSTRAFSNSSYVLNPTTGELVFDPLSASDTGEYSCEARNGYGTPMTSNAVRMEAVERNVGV

T7: EVA-His (UniProt O60487 27-154, limits assumed)
T7 construct: Construct not described; also called EVA1; not shown: His tag
T7 sequence (looked up): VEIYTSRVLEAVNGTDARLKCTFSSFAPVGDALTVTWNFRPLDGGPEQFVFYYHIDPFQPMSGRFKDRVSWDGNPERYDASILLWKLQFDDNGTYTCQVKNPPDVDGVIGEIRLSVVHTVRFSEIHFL


Tests used:
[1] = molecular target: T1, JAMA on CHO cells (CHO-JAMA …); experiment: staining of CHO-JAMA transfectants
[2] = molecular target: T2, purified extracellular domain of CAR …; experiment: ELISA, antigen coated at 5 µg/ml
CLMP-Fc = molecular target: T3, CLMP-Fc; experiment: ELISA, antigen coated at 5 µg/ml
JAMC_Fc = molecular target: T4, JAMC_Fc; experiment: ELISA, antigen coated at 5 µg/ml
JAMA-GST = molecular target: T5, JAMA-GST; experiment: ELISA, antigen coated at 5 µg/ml
SIRPA-HIS = molecular target: T8, SIRPA-HIS (UniProt P78324 31-370, limits assumed); experiment: ELISA, antigen coated at 5 µg/ml
T8 construct: Construct not described; not shown: His tag

BSA = BSA (UniProt P02769 25-607); experiment: ELISA, antigen coated at 5 µg/ml
JAMA-Fc = molecular target: T6, JAMA-Fc; experiment: ELISA, antigen coated at 5 µg/ml
EVA-His = molecular target: T7, EVA-His; experiment: ELISA, antigen coated at 5 µg/ml

Sequence of BSA (P02769 25-607 limits assumed): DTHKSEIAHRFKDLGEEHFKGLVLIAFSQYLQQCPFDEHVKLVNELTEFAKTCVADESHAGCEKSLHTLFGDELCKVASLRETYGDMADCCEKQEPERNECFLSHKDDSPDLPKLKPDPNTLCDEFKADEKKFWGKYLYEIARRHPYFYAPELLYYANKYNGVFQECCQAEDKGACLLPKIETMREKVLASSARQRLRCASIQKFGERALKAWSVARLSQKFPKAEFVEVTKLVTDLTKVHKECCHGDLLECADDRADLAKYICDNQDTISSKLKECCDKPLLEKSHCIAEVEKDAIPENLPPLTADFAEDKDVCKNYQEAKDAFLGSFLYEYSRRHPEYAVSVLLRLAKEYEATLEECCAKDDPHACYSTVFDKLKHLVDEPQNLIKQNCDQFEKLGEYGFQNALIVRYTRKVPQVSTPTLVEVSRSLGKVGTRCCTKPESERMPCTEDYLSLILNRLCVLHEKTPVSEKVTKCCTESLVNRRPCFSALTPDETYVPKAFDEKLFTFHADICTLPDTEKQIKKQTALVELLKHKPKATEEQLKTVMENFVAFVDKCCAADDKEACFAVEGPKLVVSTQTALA
T8 sequence (P78324 31-370 limits assumed): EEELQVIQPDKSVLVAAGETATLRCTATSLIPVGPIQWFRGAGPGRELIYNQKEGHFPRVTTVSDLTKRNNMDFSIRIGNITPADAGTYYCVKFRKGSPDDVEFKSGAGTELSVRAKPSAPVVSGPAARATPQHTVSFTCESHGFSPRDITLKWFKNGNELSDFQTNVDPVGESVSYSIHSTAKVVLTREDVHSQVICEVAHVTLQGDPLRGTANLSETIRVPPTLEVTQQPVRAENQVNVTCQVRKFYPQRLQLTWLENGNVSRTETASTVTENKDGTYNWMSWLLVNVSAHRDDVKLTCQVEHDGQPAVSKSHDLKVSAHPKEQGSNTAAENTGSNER

Row | Binder | binding result [1] | binding result [2] | binding result (CLMP-Fc) | binding result (JAMC_Fc) | binding result (JAMA-GST) | binding result (SIRPA-HIS) | binding result (BSA) | binding result (JAMA-Fc) | binding result (EVA-His)
1 | DW100 (antibody, IgG1, V domains shown, also called DW100 mAb; anti-JAML monoclonal antibody DW100) VH: DVQLVESGAELVRPGASVKLSCKALAYTFTDYEMHWVKQTPVHGLEWIGIIHPGSGGTVYNQKFKGKATLTADKSSSTAYMELSSLTSEDSTVYYCTRRRYYGSSYWYFDVWGAGN VL: VLTQSPASLAASVGETVTITCRASENIYYSLAWYQQKQGKSPQLLIYNANSLEDGVPSRFSGSGSGTQYSLKINSMQPEDTATYFCEQTYDVPLTFGAGTKLEL | no binding | no binding (tested: antibody 10 µg/ml) | no binding (tested: antibody 10 µg/ml) | no binding (tested: antibody 10 µg/ml) | no binding (tested: antibody 10 µg/ml) | no binding (tested: antibody 10 µg/ml) | no binding (tested: antibody 10 µg/ml) | no binding (tested: antibody 10 µg/ml) | no binding (tested: antibody 10 µg/ml)
2 | DW216 (antibody, IgG1, V domains shown, also called DW216 mAb; H3L3) VH: DVQLVESGPGLVKPSQSLSLTCTVTGYSITSDYAWNWIRQFPGNKLEWMGYISSSGNSNYNPSLKSRISITRDTSKNQFFLQLNSVTTEDTATYYCAGATGYSMDYWGQGTTLTVK VL: VLTQSPAIMSASLGERVTMTCTASSSVSSSYLHWYQQKPGSSPKLWIYSTSNLASGVPARFSGSGSGTSYSLTISSMEAEDAATYYCHQYHRSPFTFGSGTKLELK | no binding | no binding (tested: antibody 10 µg/ml) | no binding (tested: antibody 10 µg/ml) | no binding (tested: antibody 10 µg/ml) | no binding (tested: antibody 10 µg/ml) | no binding (tested: antibody 10 µg/ml) | no binding (tested: antibody 10 µg/ml) | no binding (tested: antibody 10 µg/ml) | no binding (tested: antibody 10 µg/ml)
